Assay results reported in patent EP4818204A1 (Nanjing Leads Biolabs Co., Ltd., dated 2026).
Values belong to the binder of their own block, whether it stands above or below them.

How the values were obtained:
Test in all cases: ELISA, coated protein, antibody at 4 µg/mL
human GDF1 protein = target: T1, human GDF1 protein (human, UniProt P27539 254-372, limits assumed)
T1 construct: Bought
T1 sequence (looked up): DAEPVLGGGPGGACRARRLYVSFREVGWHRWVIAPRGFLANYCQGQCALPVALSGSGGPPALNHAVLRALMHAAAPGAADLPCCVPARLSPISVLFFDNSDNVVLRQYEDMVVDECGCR

human GDF2 protein = target: T2, human GDF2 protein (human, UniProt Q9UK05 320-429)
T2 construct: Bought
T2 sequence (looked up): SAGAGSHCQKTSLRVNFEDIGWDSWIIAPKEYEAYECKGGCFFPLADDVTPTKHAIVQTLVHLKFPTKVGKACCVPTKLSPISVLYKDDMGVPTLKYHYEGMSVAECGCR

human GDF3 protein = target: T3, human GDF3 protein (human, UniProt Q9NR23 251-364, limits assumed)
T3 construct: Bought
T3 sequence (looked up): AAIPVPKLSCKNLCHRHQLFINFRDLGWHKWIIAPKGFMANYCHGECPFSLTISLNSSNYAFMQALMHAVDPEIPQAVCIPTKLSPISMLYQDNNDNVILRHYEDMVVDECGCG

human GDF11 protein = target: T4, human GDF11 protein (human, UniProt O95390 299-407)
T4 construct: Bought
T4 sequence (looked up): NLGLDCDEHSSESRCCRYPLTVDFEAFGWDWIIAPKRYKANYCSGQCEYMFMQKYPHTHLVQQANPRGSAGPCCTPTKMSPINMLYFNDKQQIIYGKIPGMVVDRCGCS

human TGFβ1 protein = target: T5, human TGFβ1 protein (human, UniProt P01137 279-390)
T5 construct: Bought

human GFRα1 protein = target: T6, human GFRα1 protein (human, UniProt P56159 25-429, limits assumed)
T6 construct: Bought
T6 sequence (looked up): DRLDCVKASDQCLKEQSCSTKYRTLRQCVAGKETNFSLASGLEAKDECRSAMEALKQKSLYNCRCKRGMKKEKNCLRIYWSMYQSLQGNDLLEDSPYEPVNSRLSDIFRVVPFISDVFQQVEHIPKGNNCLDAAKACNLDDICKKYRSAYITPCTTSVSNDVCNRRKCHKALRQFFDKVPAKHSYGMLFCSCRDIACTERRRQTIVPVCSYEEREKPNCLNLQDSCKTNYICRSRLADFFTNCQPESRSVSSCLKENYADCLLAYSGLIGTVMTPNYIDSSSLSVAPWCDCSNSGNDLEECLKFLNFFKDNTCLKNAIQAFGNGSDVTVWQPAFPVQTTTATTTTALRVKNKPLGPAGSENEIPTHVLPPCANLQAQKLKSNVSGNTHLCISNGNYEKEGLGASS

human Activin B protein = target: T7, human Activin B protein (human, UniProt P09529 293-407)
T7 construct: Bought; Activin B is by nature a dimer of inhibin beta B chains
T7 sequence (looked up): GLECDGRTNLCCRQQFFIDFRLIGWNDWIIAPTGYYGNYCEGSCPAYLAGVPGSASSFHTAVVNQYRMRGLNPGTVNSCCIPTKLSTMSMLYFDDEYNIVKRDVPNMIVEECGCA

human GDNF protein = target: T8, human GDNF protein (human, UniProt P39905 78-211)
T8 construct: Bought
T8 sequence (looked up): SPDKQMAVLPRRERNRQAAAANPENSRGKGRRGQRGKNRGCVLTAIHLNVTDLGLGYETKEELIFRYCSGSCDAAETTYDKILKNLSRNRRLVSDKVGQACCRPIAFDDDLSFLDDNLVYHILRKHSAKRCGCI

T5 sequence (P01137 279-390 limits assumed): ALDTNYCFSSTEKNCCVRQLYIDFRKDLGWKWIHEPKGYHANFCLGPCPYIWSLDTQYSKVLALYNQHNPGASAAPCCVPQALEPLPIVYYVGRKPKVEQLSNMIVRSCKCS

OD value (human GDF1 protein): 0.201 OD 450 nm-620 nm | OD value (human GDF2 protein): 0.0616 OD 450 nm-620 nm | OD value (human GDF3 protein): 0.0862 OD 450 nm-620 nm | OD value (human GDF11 protein): 0.0735 OD 450 nm-620 nm | OD value (human TGFβ1 protein): 0.103 OD 450 nm-620 nm | OD value (human GFRα1 protein): 0.11 OD 450 nm-620 nm | OD value (human Activin B protein): 0.12 OD 450 nm-620 nm
B1: Hu19C4C7 (antibody, human IgG1, kappa)
heavy: QVQLVQSGAEVKKPGSSVKVSCKASGYSFTGYIMNWVRQAPGQSLEWMGDIDPYYGGPNYNQKFQGRVTITVDKSTSTAYMELSSLRSEDTAVYYCSRRDYNYGSFAYWGQGTLVTVSSASTKGPSVFPLAPSSKSTSGGTAALGCLVKDYFPEPVTVSWNSGALTSGVHTFPAVLQSSGLYSLSSVVTVPSSSLGTQTYICNVNHKPSNTKVDKKVEPKSCDKTHTCPPCPAPEAAGAPSVFLFPPKPKDTLMISRTPEVTCVVVDVSHEDPEVKFNWYVDGVEVHNAKTKPREEQYNSTYRVVSVLTVLHQDWLNGKEYKCKVSNKALPAPIEKTISKAKGQPREPQVYTLPPSREEMTKNQVSLTCLVKGFYPSDIAVEWESNGQPENNYKTTPPVLDSDGSFFLYSKLTVDKSRWQQGNVFSCSVMHEALHNHYTQKSLSLSPGK
light: QIVLTQSPATLSLSPGERATLSCRASSSVNYMHWYQQKPGQAPRPLIYATSNLATGIPARFSGSGSGTDYTLTISSLEPEDFAVYYCQQWSDNPPTFGQGTKLEIKRTVAAPSVFIFPPSDEQLKSGTASVVCLLNNFYPREAKVQWKVDNALQSGNSQESVTEQDSKDSTYSLSSTLTLSKADYEKHKVYACEVTHQGLSSPVTKSFNRGEC
notes: Humanized form of murine 19C4C7; human IgG1 constant region with L234A, L235A, G237A and kappa light chain constant region; also called hu19C4C7-IgG1-mut(L234A,L235A,G237A)

OD value (OD 450 nm-620 nm) (human GDNF protein): 0.273
B2: HuVHH43-3 (Fc fusion)
heavy: QLQLVESGGGLVQPGGSLRLSCAASGHTYGMGWFRQAPGKAREIVSAISRSGSSTYYADSVKGRFTISRDNSKNTLYLQMNSLRAEDTAVYICGASTSALVPTTTGMYAYWGQGTRVTVSSEPKSSDKTHTCPPCPAPEAAGAPSVFLFPPKPKDTLMISRTPEVTCVVVDVSHEDPEVKFNWYVDGVEVHNAKTKPREEQYNSTYRVVSVLTVLHQDWLNGKEYKCKVSNKALPAPIEKTISKAKGQPREPQVYTLPPSREEMTKNQVSLTCLVKGFYPSDIAVEWESNGQPENNYKTTPPVLDSDGSFFLYSKLTVDKSRWQQGNVFSCSVMHEALHNHYTQKSLSLSPGK
notes: also called huVHH43-IgG1-mut(L234A,L235A,G237A); VHH humanized anti-GDF15 antibody
